In paper PMC13148777:

Tests used:
[1] = biological target: HAdV-D10 penton base (human adenovirus D 10 (HAdV-D10)); assay: cryo-EM structure; purified HAdV-D10 virions; symmetry expansion, focused classification and refinement of penton and fiber shaft without symmetry (C1); 4.6 Å global, fiber shaft about 10 Å; AlphaFold3 fiber-penton model fitted as a rigid body
[2] = biological target: HAdV-D10 fiber protein (human adenovirus D 10 (HAdV-D10)); assay: as above

Substance | stoichiometry N [1] | stoichiometry N [2]
HAdV-D10 penton base (natural protein) | 5 | –
HAdV-D10 fiber protein (natural protein) | – | 3
